Reference: PMC8892516, “Intragenic suppressors unravel the role of the SCREAM ACT-like domain for bHLH partner selectivity in stomatal development” (Proceedings of the National Academy of Sciences of the …, 2022)
Changes are numbered by the printed parent chain. One block for each binder: values may come before it.

Experiments:
Settings in all cases: both partners purified
SPCH (ΔNSPCH, 98-364) = target: T1, SPCH (ΔNSPCH, 98-364) (Arabidopsis thaliana, UniProt Q700C7 98-364); assay: ITC; Malvern PEAQ-ITC; 40 µM SCRM/SCRMΔC injected into 4 µM SPCH/MUTE/FAMA; PBS, pH 7.2 (Table S1; methods: pH 7.4); 25 °C; single binding site model; means of two experiments
T1 construct: the only recombinant SPCH with bHLH domain that the methods list is ΔNSPCH (98-364); source: E. coli BL21, purified (glutathione resin, thrombin, Superdex-200); not shown: GST, N-terminal, cleaved
T1 sequence (looked up): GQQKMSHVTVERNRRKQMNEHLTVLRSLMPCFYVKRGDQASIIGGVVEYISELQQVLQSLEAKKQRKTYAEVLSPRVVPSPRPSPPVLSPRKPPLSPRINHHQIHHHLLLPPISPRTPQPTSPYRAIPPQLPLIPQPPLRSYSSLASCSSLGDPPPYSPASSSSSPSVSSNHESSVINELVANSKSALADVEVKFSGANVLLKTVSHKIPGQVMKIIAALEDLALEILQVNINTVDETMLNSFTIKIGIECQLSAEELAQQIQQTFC

MUTE (1-202) = target: T2, MUTE (1-202) (Arabidopsis thaliana, UniProt Q9M8K6 1-202); assay: as above
T2 construct: MUTE, Arabidopsis thaliana, residues 1-202; MUTE (1-202) was made both as a GST fusion (pGEX-4T-1, thrombin-cleavable) and with an N-terminal His tag (pET28a); also called MUTE-HIS; MUTE-histag; source: E. coli BL21, purified (Ni-NTA or glutathione resin, Superdex-200)
T2 sequence (looked up): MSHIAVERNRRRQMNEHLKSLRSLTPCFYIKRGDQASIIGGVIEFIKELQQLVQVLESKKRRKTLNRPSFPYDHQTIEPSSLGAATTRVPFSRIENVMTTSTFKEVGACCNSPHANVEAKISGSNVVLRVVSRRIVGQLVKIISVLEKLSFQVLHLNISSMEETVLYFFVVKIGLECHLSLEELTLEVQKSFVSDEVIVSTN

FAMA (ΔNFAMA) = target: T3, FAMA (ΔNFAMA) (Arabidopsis thaliana, Limits not printed. Start set by analogy with the printed ΔNSPCH 98-364 (one residue before the annotated bHLH). Runs to the native C-terminus. Tag or fusion carrier omitted.); assay: as above
T3 chain: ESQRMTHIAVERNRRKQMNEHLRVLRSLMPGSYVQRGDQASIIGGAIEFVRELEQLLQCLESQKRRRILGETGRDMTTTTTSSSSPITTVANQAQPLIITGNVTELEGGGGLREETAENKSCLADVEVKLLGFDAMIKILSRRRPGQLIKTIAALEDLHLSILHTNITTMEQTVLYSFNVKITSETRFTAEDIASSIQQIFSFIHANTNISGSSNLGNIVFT

ΔNFAMA, recombinant = target: T4, ΔNFAMA, recombinant (Arabidopsis thaliana, Limits not printed. Start set by analogy with the printed ΔNSPCH 98-364, which starts one residue before its annotated bHLH (99); FAMA bHLH is 194-245. Runs to the native C-terminus, including the ACT); assay: ITC; Malvern PEAQ-ITC, 25 °C, PBS pH 7.4; 40 μM SCRM/SCRMΔC injected into 4 μM SPCH/MUTE/FAMA; single binding site model
T4 chain: T3 chain

[1] = target: T5, ΔNSPCH (98-364), recombinant (Arabidopsis thaliana, UniProt Q700C7 98-364); assay: as above
T5 construct: BLI and ITC name it only SPCH; ΔNSPCH (98-364) is the only long recombinant SPCH construct that the methods list; also called purified SPCH; source: E. coli BL21, purified (glutathione resin, thrombin, Superdex-200); not shown: GST, N-terminal, cleaved
T5 sequence (looked up): T1 sequence (looked up)

[2] = target: T6, MUTE (1-202), recombinant (Arabidopsis thaliana, UniProt Q9M8K6 1-202); assay: as above
T6 construct: MUTE, Arabidopsis thaliana, residues 1-202; MUTE (1-202) was cloned both in pGEX-4T-1 (N-terminal GST, thrombin cleaved) and in pET28a (N-terminal His tag); also called purified MUTE; MUTE-HIS; source: E. coli BL21, purified (Ni-NTA, Superdex-200)
T6 sequence (looked up): T2 sequence (looked up)

[3] = target: T7, SCRM ACTL_(L484F) (405-494) (Arabidopsis thaliana, UniProt Q9LSE2 405-494, L484F); assay: ITC; Malvern PEAQ-ITC, 25 °C, PBS pH 7.4; 150 μM SCRM ACTL/SCRM L484F ACTL injected into 15 μM SPCH ACTL/MUTE ACTL
T7 construct: SCREAM (SCRM, ICE1), Arabidopsis thaliana, At3G26744, ACT-like domain, residues 405-494, L484F (printed L485F in the methods); results, legends and the ITC methods print L484F; the cloning, CD and modelling methods print L485F; also called SCRM-ACTL_(L485F); SCRM L484F ACTL; source: E. coli BL21, purified (glutathione resin, thrombin, Superdex-200); not shown: GST, N-terminal, cleaved
T7 sequence (looked up): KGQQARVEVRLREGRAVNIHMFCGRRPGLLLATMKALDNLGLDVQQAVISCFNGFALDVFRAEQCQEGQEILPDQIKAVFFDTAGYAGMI

SCRM ACTL (405-494) = target: T8, SCRM ACTL (405-494) (Arabidopsis thaliana, UniProt Q9LSE2 405-494); assay: as above
T8 construct: SCREAM (SCRM, ICE1), Arabidopsis thaliana, At3G26744, ACT-like domain, residues 405-494; also called SCRM ACTL domain; source: E. coli BL21, purified (glutathione resin, thrombin, Superdex-200); not shown: GST, N-terminal, cleaved
T8 sequence (looked up): T7 sequence (looked up) with F80L

SPCH-ACTL (285-364) = target: T9, SPCH-ACTL (285-364) (Arabidopsis thaliana, UniProt Q700C7 285-364); assay: ITC; Malvern PEAQ-ITC; 150 µM SCRM ACTL/SCRM L484F ACTL injected into 15 µM SPCH ACTL/MUTE ACTL; PBS, pH 7.2 (Table S3; methods: pH 7.4); 25 °C; means of two experiments
T9 construct: also called SPCH ACTL domain; source: E. coli BL21, purified (glutathione resin, thrombin, Superdex-200); not shown: GST, N-terminal, cleaved
T9 sequence (looked up): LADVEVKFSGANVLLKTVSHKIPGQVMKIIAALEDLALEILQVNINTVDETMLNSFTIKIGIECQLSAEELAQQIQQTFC

MUTE-ACTL (114-202) = target: T10, MUTE-ACTL (114-202) (Arabidopsis thaliana, UniProt Q9M8K6 114-202); assay: as above
T10 construct: MUTE, Arabidopsis thaliana, C-terminal ACT-like domain, residues 114-202; also called MUTE ACTL domain; source: E. coli BL21, purified (glutathione resin, thrombin, Superdex-200); not shown: GST, N-terminal, cleaved
T10 sequence (looked up): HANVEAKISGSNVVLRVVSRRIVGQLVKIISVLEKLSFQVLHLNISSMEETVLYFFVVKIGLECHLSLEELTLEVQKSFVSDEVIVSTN

stoichiometry N (SPCH (ΔNSPCH, 98-364)): 1.02
stoichiometry N (MUTE (1-202)): 1.03
stoichiometry N (FAMA (ΔNFAMA)): 0.91
B1: SCRM (1-494), GST removed (natural protein, Arabidopsis thaliana, UniProt Q9LSE2 1-494, looked up)
chain: MGLDGNNGGGVWLNGGGGEREENEEGSWGRNQEDGSSQFKPMLEGDWFSSNQPHPQDLQMLQNQPDFRYFGGFPFNPNDNLLLQHSIDSSSSCSPSQAFSLDPSQQNQFLSTNNNKGCLLNVPSSANPFDNAFEFGSESGFLNQIHAPISMGFGSLTQLGNRDLSSVPDFLSARSLLAPESNNNNTMLCGGFTAPLELEGFGSPANGGFVGNRAKVLKPLEVLASSGAQPTLFQKRAAMRQSSGSKMGNSESSGMRRFSDDGDMDETGIEVSGLNYESDEINESGKAAESVQIGGGGKGKKKGMPAKNLMAERRRRKKLNDRLYMLRSVVPKISKMDRASILGDAIDYLKELLQRINDLHNELESTPPGSLPPTSSSFHPLTPTPQTLSCRVKEELCPSSLPSPKGQQARVEVRLREGRAVNIHMFCGRRPGLLLATMKALDNLGLDVQQAVISCFNGFALDVFRAEQCQEGQEILPDQIKAVLFDTAGYAGMI
notes: SCREAM (SCRM, ICE1), Arabidopsis thaliana, At3G26744, residues 1-494; Used for ITC; the methods tell thrombin cleavage of the GST-fused proteins in general, not for ITC by name; also called SCREAM; ICE1; source: E. coli BL21, purified (glutathione resin, thrombin, Superdex-200); not shown: GST, N-terminal, cleaved

stoichiometry N (ΔNFAMA, recombinant): 1
stoichiometry N [1]: 1
stoichiometry N [2]: 1
B2: SCRM (1-494), recombinant (natural protein, Arabidopsis thaliana, UniProt Q9LSE2 1-494, looked up)
chain: B1 chain
notes: SCREAM (SCRM, ICE1), Arabidopsis thaliana, At3G26744, residues 1-494; the purification methods tell thrombin cleavage; source: E. coli BL21, purified (glutathione resin, thrombin, Superdex-200); not shown: GST, N-terminal, cleaved

Kd [3]: 1700 nM
Kd (SCRM ACTL (405-494)): 1200 nM
B3: SPCH-ACTL (285-364) (domain or fragment, Arabidopsis thaliana, UniProt Q700C7 285-364, looked up)
chain: T9 sequence (looked up)
notes: source: E. coli BL21, purified (glutathione resin, thrombin, Superdex-200); not shown: GST, N-terminal, cleaved

stoichiometry N (SPCH-ACTL (285-364)): 0.95
stoichiometry N (MUTE-ACTL (114-202)): 0.95
B4: SCRM ACTL (405-494) (domain or fragment, Arabidopsis thaliana, UniProt Q9LSE2 405-494, looked up)
chain: T7 sequence (looked up) with F80L
notes: SCREAM (SCRM, ICE1), Arabidopsis thaliana, At3G26744, C-terminal ACT-like domain, residues 405-494; also called SCRM ACTL domain; source: E. coli BL21, purified (glutathione resin, Superdex-200)
